Results on two molecules are retold here after paper PMC5125011, “Soluble Siglec-5 associates to PSGL-1 and displays anti-inflammatory activity” (Scientific Reports, 2016).

For data set [1], the target named is T1, human soluble recombinant PSGL1 fused to human Fc (human, UniProt Q14242 18-320).
T1 construct: P-selectin glycoprotein ligand-1 (PSGL1), human, soluble ectodomain; Sialylated glycoprotein; also called sPSGL1/Fc; soluble PSGL1/Fc; source: bought: R&D Systems (cat# 3345-PS)
T1 sequence (looked up): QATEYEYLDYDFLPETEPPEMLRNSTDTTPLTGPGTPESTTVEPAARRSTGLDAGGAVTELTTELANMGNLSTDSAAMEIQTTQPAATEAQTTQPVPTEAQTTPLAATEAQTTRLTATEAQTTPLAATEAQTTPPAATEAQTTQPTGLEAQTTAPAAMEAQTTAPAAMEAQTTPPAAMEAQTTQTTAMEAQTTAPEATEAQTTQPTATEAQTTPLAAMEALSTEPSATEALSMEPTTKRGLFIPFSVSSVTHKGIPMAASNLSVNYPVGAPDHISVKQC
As to the kind of experiment: ELISA; sPSGL1/Fc (0.25 μg/well) adsorbed to microtiter wells; Tris-buffered saline with 2.5 mM CaCl2, 0.1% Tween-20, 3% BSA; bound sSiglec-5 probed with biotin-labeled polyclonal anti-Siglec-5 antibodies, bound P-selectin with a monoclonal anti-P-selectin antibody; controls with EDTA (5 mM) or polyclonal anti-Siglec-5 antibodies (6 μM) inhibited binding. Conditions: both partners purified.

Data set [2] deals with the molecule itself. In words: SDS-PAGE under non-reduced and reduced conditions; purified sSiglec-5/C4BP, Coomassie-staining; about 525 kDa non-reduced, 75 kDa reduced; heptamer to single chains.

B1: Recombinant soluble Siglec-5 fused to human Fc (Fc fusion, UniProt O15389 17-441, looked up)
chain: EKPVYELQVQKSVTVQEGLCVLVPCSFSYPWRSWYSSPPLYVYWFRDGEIPYYAEVVATNNPDRRVKPETQGRFRLLGDVQKKNCSLSIGDARMEDTGSYFFRVERGRDVKYSYQQNKLNLEVTALIEKPDIHFLEPLESGRPTRLSCSLPGSCEAGPPLTFSWTGNALSPLDPETTRSSELTLTPRPEDHGTNLTCQMKRQGAQVTTERTVQLNVSYAPQTITIFRNGIALEILQNTSYLPVLEGQALRLLCDAPSNPPAHLSWFQGSPALNATPISNTGILELRRVRSAEEGGFTCRAQHPLGFLQIFLNLSVYSLPQLLGPSCSWEAEGLHCRCSFRARPAPSLCWRLEEKPLEGNSSQGSFKVNSSSAGPWANSSLILHGGLSSDLKVSCKAWNIYGSQSGSVLLLQGRSNLGTGVVPAAL
notes: Siglec-5, soluble; also called sSiglec-5/Fc; sSg-5/Fc; source: bought: R&D Systems (cat# 1072-SL), produced in mouse myeloma cell-line NS0
The EC50 is the concentration at which the effect is half-maximal. On to B1, for which the EC50 in data set [1] is 49 ± 11 nM.

B2: heptameric Siglec-5/C4BP fusion protein (other, UniProt O15389 17-434, looked up)
chain: EKPVYELQVQKSVTVQEGLCVLVPCSFSYPWRSWYSSPPLYVYWFRDGEIPYYAEVVATNNPDRRVKPETQGRFRLLGDVQKKNCSLSIGDARMEDTGSYFFRVERGRDVKYSYQQNKLNLEVTALIEKPDIHFLEPLESGRPTRLSCSLPGSCEAGPPLTFSWTGNALSPLDPETTRSSELTLTPRPEDHGTNLTCQMKRQGAQVTTERTVQLNVSYAPQTITIFRNGIALEILQNTSYLPVLEGQALRLLCDAPSNPPAHLSWFQGSPALNATPISNTGILELRRVRSAEEGGFTCRAQHPLGFLQIFLNLSVYSLPQLLGPSCSWEAEGLHCRCSFRARPAPSLCWRLEEKPLEGNSSQGSFKVNSSSAGPWANSSLILHGGLSSDLKVSCKAWNIYGSQSGSVLLLQGRSNLGTETPEGCEQVLTGKRLMQCLPNPEDVKMALEVYKLSLEIEQLELQRDSARQSTLDKEL
notes: Siglec-5 ectodomain, residues 17-434; also called sSiglec-5/C4BP; sSg-5/C4BP
As usually defined, the stoichiometry N is a count of units in the complex or per binding partner. Take B2: the half-maximal effective concentration (EC50) in data set [1] was determined as 8 ± 1 nM. For the same molecule, in data set [2], the “stoichiometry N” value is 7.
